Columns and labels:
Format in all cases: cell-based, human
let-7 = let-7 expression by qPCR; settings: EpEX 3 μg/mL
Source text: The expression of let-7 was detected by qPCR. MSCs expressing EGFR shRNA, STAT3 shRNA or Lin28b shRNA were stimulated with EpEX. The expression of let-7 was detected by qPCR. […] Expression of pluripotency factors (Oct4, Sox2, c-Myc and Lin28) was examined by qPCR. MSCs were transfected with a let-7 mimetic, and then stimulated with EpEX. Protein levels of pluripotency factors (Oct4, Sox2, c-Myc, and Lin28) were examined by Western blotting.
Total RNA was extracted using TRI reagent (Invitrogen, CA, USA), and 5 μg of total RNA was reverse transcribed using oligo (dT) primer (Fermentas, Glen Burnie, MD, USA) with SuperScript III reverse transcriptase (Invitrogen). Quantitative real time RT-PCR (qPCR) was performed on cDNA using the Light Cycler 480 SYBR Green I Master kit (Roche Applied Science, Indianapolis, IN) and the LightCycler480 System (Roche Applied Science). The gene expression levels of each sample were normalized to the expression levels of glyceraldehyde 3-phosphate dehydrogenase (GAPDH).

[1] = test system: HMGA2 binding to the promoters of Oct4 and Sox2; test: ChIP of HMGA2 binding to promoters of pluripotency genes; settings: EpEX treatment, data not shown
Method: MSCs were treated with EpEX (3 μg/mL), and the expression of HMGA2 was detected by immunofluorescence staining. […] To detect the binding of HMGA2 to Oct4 promoters, cross-linked DNA was isolated and then amplified with specific primers by qPCR. […] The gene expression of HMGA2 is detected by qPCR. MSCs were treated with let-7 mimetic and then treated with EpEX (3 μg/mL) for 12 h. The protein abundance of HMGA2 was examined by Western blotting.
We performed chromatin immunoprecipitation (ChIP) with the Pierce™ Magnetic ChIP Kit (Thermo Fisher Scientific), to according the manufacturer's instructions. In brief, the protein-DNA complexes were cross-linked with 1% formaldehyde and quenched by adding glycine to a final concentration of 200 mM. The chromatin complexes were sonicated to an average size of 250 bp by a MISONIX Sonicator 3000. For immunoprecipitation, 4 μg of […] (Novus) was incubated with protein G beads (Invitrogen) for 4 h. The immunocomplexes were further incubated with chromatin for another 4 h. […]
The immunoprecipitated DNA was recovered by a PCR purification kit (Thermo Fisher Scientific), and the purified DNA was subjected to real time quantitative PCR for further analysis. Immunoprecipitation/input was calculated for each gene and each gene was further normalized to the level of mouse β-actin promoter. […]

[2] = test system: TACE (Ser435), PS2 (Ser327), ERK1/2; test: Western blotting of phosphorylation of TACE, Presenilin 2 and ERK1/2
Method: FIG. 9. EpEX induces the phosphorylation and activity of TACE and γ-secretase. MSCs were stimulated by EpEX for the indicated times, and the activity of TACE and γ-secretase were detected. MSCs were stimulated by EpEX (3 μg/mL) for the indicated times. Western blot analysis was performed to detect the phosphorylation of TACE and Presenilin 2.
FIG. 10. EpEX and EGF induce the phosphorylation of TACE, ERK1/2 and PS2. MSCs were treated with either EGF, EpEX, or co-treated with EGF and EpEX for 5 min. The phosphorylation of ERK1/2 was examined by Western blotting with specific antibodies. […] The phosphorylation of ERK1/2, TACE (Ser435), PS2 (Ser327) were examined by Western blotting with specific antibodies.
Western blotting was performed as previously described (Takahashi et al., 2003). Cells were lysed in lysis buffer (150 mM NaCl, 50 mM Tris-HCl (pH 7.4), 1% Nonidet P-40), containing a protease inhibitor mix (Roche Applied Science). Nuclear fractions and cytoplasmic fractions were separated by the Nuclear/Cytosol Fractionation Kit according to the manufacturer's instructions (BioVision Inc., Milpitas, CA, USA). Protein samples were separated by SDS-PAGE under denaturing conditions, and transferred to a PVDF membrane (Millipore). To probe for pluripotency markers, membranes were incubated with the indicated antibodies against Oct4 (1:1000, Abcam, Cambridge, UK), Nanog (1:1000, Genetex), Lin28 (1:1000, Genetex) or Sox2 (1:1000, Genetex). The CDK and cyclin antibodies were from the CDK and Cyclin Antibody Sampler Kits (Cell Signalling Technology, #9868 and #9869 respectively), including antibodies against cylin D1, D2, E1, and CDK4, CDK9 (1:1000). EpCAM (1:1000, Genetex), phospho-EGFR (1:1000, Cell signaling), EGFR (1:1000, Cell signaling), HMGA2 (1:1000, Cell signaling) or GAPDH (1:10000, Abcam) were also used. After incubation with primary antibody, the membranes were incubated with horseradish peroxidase (HRP)-conjugated secondary antibodies, goat anti-mouse IgG (1:3000, Santa Cruz, CA) or goat anti-rabbit IgG (1:3000, Santa Cruz, CA). […]

HMGA2 binding to the promoters of Oct4 and Sox2 [1]: can induce
B1: EpEX: extracellular domain of human EpCAM, 265 amino acids in length (SEQ ID NO: 2) (protein, listed as Homo sapiens)
chain: MAPPQVLAFGLLLAAATATFAAAQEECVCENYKLAVNCFVNNNRQCQCTSVGAQNTVICSKLAAKCLVMKAEMNGSKLGRRAKPEGALQNNDGLYDPDCDESGLFKAKQCNGTSMCWCVNTAGVRRTDKDTEITCSERVRTYWIIIELKHKAREKPYDSKSLRTALQKEITTRYQLDPKFITSILYENNVITIDLVQNSSQKTQNDVDIADVAYYFEKDVKGESLFHSKKMDLTVNGEQLDLDPGQTLIYYVDEKAPEFSMQGLK
level of let-7 (let-7): decreased | phosphorylation of TACE ([2]; EpEX 3 μg/mL): induced | phosphorylation of γ-secretase (Presenilin 2) ([2]; EpEX 3 μg/mL): induced | phosphorylation of ERK1/2 ([2]; EpEX, EGFR-dependent): can induce

From patent US20260125649A1, “MEDIUM COMPOSITION AND METHOD FOR CULTURING MESENCHYMAL STEM CELLS” (ACADEMIA SINICA, priority 2018, published 2026)
